# According to IntAct's records for PubMed 17292842:
# B1: Rab guanine nucleotide exchange factor SEC2 (Saccharomyces cerevisiae), P17065 (parent)
# chain: MDASEEAKRVSIQVTSLSTQLIESVDKQSHLEEQLNKSLKTIASQKAAIENYNQLKEDYNTLKRELSDRDDEVKRLREDIAKENELRTKAEEEADKLNKEVEDLTASLFDEANNMVADARKEKYAIEILNKRLTEQLREKDTLLDTLTLQLKNLKKVMHSLDNESTVTNNSNRYSTILSDSATSSSTSLNKVPTSYSLASQDIYSGIVYSPSISSIRYDISLYNEFLKFVAALPRCENIKATSTESKLIRRLVNDEIQPILKIDNASGIGWLVKKTLLSLIIDGLVVVEPLSGVNATYQIGYNSSSPAKQATSNMPKMFKFPLDSPPVAVHAACSFCGESRDDIIEHARMYILKTLHKTDDGKEQVTNTYPLCHWCLLKLRQTCEIFAFLRSLKVGAWHLEKLTTQNITKEDLEKFSEVTKHTKRDGRVSSQDKKTKRLSFMAGLGINSSTKNKPKMEIFSSETNAKPGQPTTNIQRAWLQLCKLRCILHWTHIGIWAVDDSISSKIGPLVEDDSDEDQNDAISVRLQDKALWKQDAKRPFSSSSAEESQKSDAFDFESGDMENEITGESSSDESSSDGSSTDNSTADSSSEDESSLADSTTSSADSSSPESIDNGEGDDTVTKDDKSSIKSANNNEENSDCGDKKGRSIIKKKAPQRKIQKKKLLQDLDDLEEQFREESAIDQTEFENAESNVKQNISSKRASSGDENSKKDNNEKTLKTNLTIGDKTQEQIGENSPSSGLHASSSNDDNFDDAQEQQ
# partner: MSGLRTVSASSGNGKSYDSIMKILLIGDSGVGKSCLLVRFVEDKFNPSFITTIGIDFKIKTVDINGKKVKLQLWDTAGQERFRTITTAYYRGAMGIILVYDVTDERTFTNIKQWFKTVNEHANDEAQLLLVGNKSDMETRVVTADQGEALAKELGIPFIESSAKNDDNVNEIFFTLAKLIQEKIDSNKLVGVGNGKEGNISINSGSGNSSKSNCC
# Variants of: B1
# Conditions: with sec4_yeast SEC4, P07560
row,Variant,effect of a mutation on the interaction
1,E100A,disrupting interaction
2,L104A,disrupting interaction
3,F109A,disrupting interaction
